Laboratory results published in PMC4094278, “The Dictyostelium discoideum RACK1 orthologue has roles in growth and development” (Cell Communication and Signaling : CCS, 2014).

Molecular target: the molecule itself
Experiment: cross-linking; 5-10 μg/100 μl recombinant protein in 1 x PBS, pH 7.4, room temperature, 0.001% glutaraldehyde, 5, 10 and 20 min, stopped with 0.1 M glycine; SDS-PAGE and western blot with anti-DdRACK1 antibodies; dimers and oligomers also seen without glutaraldehyde

B1: recombinant DdRACK1 full length protein cleaved from the GST part (natural protein, D. discoideum, UniProt P46800 1-329, looked up)
chain: MEQQKAPQVTYLEVGSLVGHNGFVTSIAVSPENPDTIISSSRDKTVMVWQLTPTDATSPGKAHRSLKGHSHFVQDVVISHDGQFALSGSWDNTLRLWDITKGVSTRLFKGHTQDVMSVAFSSDNRQIISGSRDATIKVWNTLGECKFTLEGPEAHQDWVSCIRFSPNTPTIVSGSWDNKVKIWDIKSFKCNHTLTDHTGYVNTVTISPDGSLCASGGKDTFACLWELSSGKPLYKLEARNTINALAFSPNKYWLSAATDDKIIIWDLLTKQVLAEIVPEVKEQAFDSKKKKESKPKAPACLSLAWSADGSVLYAGYNDGLIRVYKSSSQ
notes: D. discoideum RACK1 (GpbB), 329 amino acids; Cloned in pGEX-4T-1; cleaved with thrombin; also called GpbB; D. discoideum RACK1; source: E. coli XL1 Blue, purified (GST-Sepharose, thrombin cleavage, DE-52 anion exchange)
  binding result: binds
